Measured values from US10160812B2, “Bispecific HER2 antibodies” (MedImmune, LLC, priority 2014, dated 2018).
Values belong to the molecule of their own block, whether it stands above or below them.

Tests used:
MDA-MB-453 = assay: In vitro cytotoxic activity (Cell Titer Glo); format: cell-based, human; settings: MDA-MB-453, 3 to 4 days; read-out: In vitro potency (EC50 in pM)
[1] = tested on: NCI-N87 and MDA-MB-468 cells co-culture; assay: Bystander effect co-culture assay (FACS); format: cell-based, human; settings: co-culture of HER2-overexpressing NCI-N87 and HER2-null MDA-MB-468, 5 nM, 4 days
Method: NCI-N87 cells were stably transfected with green fluorescent protein (GFP) and MDA-MB-468 cells were stably transfected with red fluorescent protein (RFP). Both cell lines were harvested, washed, resuspended in culture media and then seeded in the same well of a 6-well plate as co-culture. As a control, each cell line was seeded in a different 6-well plate as single culture (FIG. 28A). To adjust to different growth kinetics, NCI-N87 cells were seeded at 5×10^5 cells/well and MDA-MB-468 cells were seeded at 2×10^5 cells/well. Cells were incubated for 2 days at 37° C./5% CO2. Media were aspirated and fresh media containing 5 nM of antibody or ADC to be tested was added to cells and the plates were incubated for 4 days at 37° C./5% CO2. At the end of treatment, cells in each well were collected, washed, resuspended in 100 μL of ice-cold FACS buffer and then fixed with 2% PFA. Cells were analyzed by a BD LSR II machine and BD FACSDiva™ software. Data were analyzed with FlowJo software.

NCI-N87 = settings: read-out: In vitro potency (EC50 in pM); NCI-N87, 3 to 4 days
Method: A panel of human cancer cell lines expressing various levels of HER2 was used to evaluate the cytotoxic activity of bispecific ADC (Table 5 in Example 1). Briefly, cells were harvested, resuspended, and plated in serum-containing culture media at a density of 5,000 to 20,000 per well (depending on the growth kinetics of each cell line) of 96-well plates in a volume of 100 μL. A 2× concentration of each dose of antibody or ADC to be tested was prepared by diluting the test articles in culture medium. One hundred microliters of each test article was added to cells in triplicate such that the final dose curve ranged from 5 nM down to 0.08 pM in a stepwise 1:4 serial dilution series. The treated cells were incubated at 37° C./5% CO2 for 3 to 4 days, depending on the growth kinetics of each particular cell line. Cell viability was determined using Cell Titer Glo according to manufacturer's instructions. Data are analyzed by the GraphPad Prism software and presented as percent growth inhibition relative to the untreated control. EC50 values were determined using Sigmoidal non-linear regression analysis with GraphPad Prism software and were summarized in Table 6.

cynomolgus monkey Her2 = assay: Capture ELISA binding specificity / species cross-reactivity; settings: recombinant extracellular domain protein
Text: (§1) To determine whether 39S retains the binding specificity and species cross-reactivity of its parental antibody AZ1.39.1, binding of 39S to the receptors of human ErbB family (EGFR, HER2, HER3, and HER4), the mouse Her2, and the cynomolgus monkey Her2 was examined by capture ELISA. Briefly, 96-well plates were coated with one of the following recombinant extracellular domain proteins: human EGFR, human HER2, human HER3, human HER4, mouse Her2, or cynomolgus monkey Her2. Antibody to be tested was prepared by diluting in a stepwise 1:3 serial dilution ranging from 50 nM down to 0.28 pM and then added to the wells in duplicate. After one hour of incubation, plates were washed, and goat anti-human IgG Fab HRP-conjugated secondary antibody was added to each well and the plates were incubated for 1 hour. The plates were washed and TMB substrate was added and incubated for 5-20 min to allow color development. The stop solution was added to the wells at the end of reaction and the plates were read at 450 nm. Binding signal (absorbance at 450 nm) was plotted against antibody concentration using Prism software.
(§2) Binding specificity and species cross-reactivity of bispecific antibodies to the recombinant extracellular domain protein of human EGFR, human HER2, human HER3, human HER4, mouse Her2, or cynomolgus monkey Her2 were determined by capture ELISA as described in Example 1.
(§3) To determine whether the conjugation of tubulysin 1508 alters antigen binding specificity and species cross-reactivity, binding activity of bispecific ADC to the recombinant extracellular domain protein of human EGFR, human HER2, human HER3, human HER4, mouse Her2, and cynomolgus monkey Her2 were confirmed by capture ELISA as described in Example 1.

human EGFR = target: T1, human EGFR (Homo sapiens, UniProt P00533); assay: as above; settings: recombinant extracellular domain protein
T1 construct: recombinant extracellular domain proteins: human EGFR, human HER2, human HER3, human HER4, mouse Her2, or cynomolgus monkey Her2
Text: as §1, §2, §3

human HER4 = target: T2, human HER4 (Homo sapiens, UniProt Q15303); assay: as above; settings: recombinant extracellular domain protein
T2 construct: recombinant extracellular domain proteins: human EGFR, human HER2, human HER3, human HER4, mouse Her2, or cynomolgus monkey Her2
T2 sequence (Q15303 26-651 limits assumed): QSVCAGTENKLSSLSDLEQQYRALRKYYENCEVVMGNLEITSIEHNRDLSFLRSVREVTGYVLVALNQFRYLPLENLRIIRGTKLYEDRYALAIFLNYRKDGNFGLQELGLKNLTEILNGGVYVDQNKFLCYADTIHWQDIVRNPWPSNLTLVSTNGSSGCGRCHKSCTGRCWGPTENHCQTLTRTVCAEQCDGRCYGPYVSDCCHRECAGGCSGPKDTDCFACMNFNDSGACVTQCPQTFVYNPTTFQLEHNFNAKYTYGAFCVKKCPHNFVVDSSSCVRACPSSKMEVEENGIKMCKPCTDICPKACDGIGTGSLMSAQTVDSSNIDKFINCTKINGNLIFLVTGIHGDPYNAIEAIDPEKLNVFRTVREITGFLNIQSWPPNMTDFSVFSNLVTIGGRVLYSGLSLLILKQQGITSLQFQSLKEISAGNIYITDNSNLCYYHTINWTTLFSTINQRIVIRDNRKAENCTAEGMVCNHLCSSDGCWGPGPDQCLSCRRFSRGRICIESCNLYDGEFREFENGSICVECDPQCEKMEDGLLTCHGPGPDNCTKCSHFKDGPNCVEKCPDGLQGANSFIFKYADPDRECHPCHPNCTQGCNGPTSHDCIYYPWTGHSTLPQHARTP
Text: as §1, §2, §3

human HER3 = target: T3, human HER3 (Homo sapiens, UniProt P21860); assay: as above; settings: recombinant extracellular domain protein
T3 construct: recombinant extracellular domain proteins: human EGFR, human HER2, human HER3, human HER4, mouse Her2, or cynomolgus monkey Her2
Text: as §1, §2, §3

Molecule: T-DM1 [reference compound]
EC50 (MDA-MB-453): 344 pM
bystander effect [1]: does not have bystander effect
EC50 (NCI-N87): 275 pM

binding by capture ELISA (cynomolgus monkey Her2): can bind
binding by capture ELISA (human EGFR): not
binding by capture ELISA (human HER4): not
binding by capture ELISA (human HER3): not
B1: 39S: lead optimized monoclonal antibody derived from the 1.39.1 antibody; VH SEQ ID NO:15, VL SEQ ID NO:16 (antibody, V domains shown)
VH: EVQLVESGGGLVKPGGSLRLSCAASGFTFSSYSMSWVRQAPGKGLEWVSSISSSSSYIYYADSVKGRFTISRDNAKNSLYLQMNSLRAEDTAVYYCARGGDAYNYYYFDYWGQGTLVTVSS
VL: DIVMTQTPLSLSVTPGQPASISCKSSQSVFFRSNNKNILAWYLQKPGQPPQLLIYWASSRESGVPDRFSGSGSGTDFTLKISRVEAEDVGVYYCQQYFGSPFTFGPGTKVDIK
